# Laboratory results: patent US20200095296A1 (TRUSTEES OF COLUMBIA UNIVERSITY IN THE CITY OF NEW YORK, published 2020)
# Where no end group is shown, it is not given here. [ ]: non-standard residue; d: D form. pY = N[C@@H](Cc1ccc(OP(=O)(O)O)cc1)C(=O)O
# T1: HLA DPB1*02:01 (human)
# T1 chain 1: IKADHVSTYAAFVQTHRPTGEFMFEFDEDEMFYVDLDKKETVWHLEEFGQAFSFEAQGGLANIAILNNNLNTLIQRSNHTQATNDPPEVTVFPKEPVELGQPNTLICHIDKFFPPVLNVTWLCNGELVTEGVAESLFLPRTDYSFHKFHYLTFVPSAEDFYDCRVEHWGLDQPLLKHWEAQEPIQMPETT
# T1 chain 2: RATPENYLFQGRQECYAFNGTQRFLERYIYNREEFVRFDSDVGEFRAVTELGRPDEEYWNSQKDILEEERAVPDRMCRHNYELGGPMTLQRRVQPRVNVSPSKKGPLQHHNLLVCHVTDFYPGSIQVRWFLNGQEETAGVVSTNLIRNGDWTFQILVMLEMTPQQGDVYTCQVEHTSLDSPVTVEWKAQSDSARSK
# T2: HLA DPB1*04:01 (human)
# T2 chain 1: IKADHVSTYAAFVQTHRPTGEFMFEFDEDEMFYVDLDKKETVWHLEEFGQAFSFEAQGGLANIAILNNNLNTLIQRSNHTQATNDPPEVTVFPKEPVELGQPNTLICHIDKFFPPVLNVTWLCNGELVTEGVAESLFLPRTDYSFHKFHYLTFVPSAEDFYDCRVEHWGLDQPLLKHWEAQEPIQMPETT
# T2 chain 2: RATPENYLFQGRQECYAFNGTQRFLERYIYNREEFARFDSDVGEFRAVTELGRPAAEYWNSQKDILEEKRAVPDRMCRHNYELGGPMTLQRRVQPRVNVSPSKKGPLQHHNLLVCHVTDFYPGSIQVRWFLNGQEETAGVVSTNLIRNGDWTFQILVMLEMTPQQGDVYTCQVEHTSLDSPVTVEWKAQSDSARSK
# B1: alpha-syn peptide aa32KTKEGVLYVGSKTKEaa46 phosphorylated at Y39 (peptide)
# peptide: KTKEGVL[pY]VGSKTKE
# notes: synthetic post-translationally modified 15-mer; also called Phospho-Y
# B2: alpha-syn peptide aa121DNEAYEMPSEEGYQDaa135 (peptide)
# peptide: DNEAYEMPSEEGYQD
# notes: synthetic 15-mer of alpha-synuclein
# B3: alpha-syn peptide aa37VLYVGSKTKaa45 (peptide)
# peptide: VLYVGSKTK
# notes: synthetic 9-mer; also called the 9 mer
# Key:
# HLA DPB1*02:01 = biological target: T1, HLA DPB1*02:01; experiment: competition with radiolabeled peptide, purified HLA
# HLA DPB1*04:01 = biological target: T2, HLA DPB1*04:01; experiment: as above
# HLA DPB1*04:02 = biological target: T3, HLA DPB1*04:02 (human); experiment: as above
# T3 construct: purified HLA class II molecule; only the beta-chain allele is printed
# HLA DPB1*05:01 = biological target: T4, HLA DPB1*05:01 (human); experiment: as above
# T4 construct: purified HLA class II molecule; only the beta-chain allele is printed
# HLA DQB1*04:02 = biological target: T5, HLA DQB1*04:02 (human); experiment: as above
# T5 construct: purified HLA class II molecule; only the beta-chain allele is printed
# HLA DQB1*05:01 = biological target: T6, HLA DQB1*05:01 (human); experiment: as above
# T6 construct: purified HLA class II molecule; only the beta-chain allele is printed
# HLA DRB1*04:01 = biological target: T7, HLA DRB1*04:01 (human); experiment: as above
# T7 construct: purified HLA class II molecule; only the beta-chain allele is printed
# HLA DRB3*01:01 = biological target: T8, HLA DRB3*01:01 (human); experiment: as above
# T8 construct: purified HLA class II molecule; only the beta-chain allele is printed
# HLA A*11:01 = biological target: T9, HLA A*11:01 (human); experiment: competition with radiolabeled peptide, purified HLA A*11:01
# T9 construct: purified HLA A*11:01 molecules
binder,measurement,setting,value
B1,IC50,HLA DPB1*02:01,620 nM
same,IC50,HLA DPB1*04:01,937 nM
same,IC50,HLA DPB1*04:02,1600 nM
same,IC50,HLA DPB1*05:01,777 nM
B2,IC50,HLA DQB1*04:02,51 nM
same,IC50,HLA DQB1*05:01,7 nM
same,IC50,HLA DRB1*04:01,76 nM
same,IC50,HLA DRB3*01:01,787 nM
B3,IC50,HLA A*11:01,161 nM
